Paper PMC12448071
pKd: −log10 of the molar value.

Target: F-actin (actin from rabbit skeletal muscle, polymerised) (rabbit) (UniProt P68135)
Experiment: co-sedimentation; high-speed cosedimentation titration: constant 500 nM FL-HTT with increasing F-actin, 30 min RT; apparent constant (Kdapp); fit accounts for ligand depletion and incomplete saturation

pKd: 6.63
Substance: recombinant human full-length wild-type HTT (21 glutamines), P42858 1-3142
